Target: T1, SARS-CoV-2 spike ectodomain protein (SARS-CoV-2, UniProt P0DTC2 14-1213)
T1 construct: extracellular domain
Experiment: BLI, immobilized spike ectodomain; avidity reported as 1/Kads

B1: 3A7 (antibody, V domains shown)
VH: QVTLKESGPGILQPSQTLSLTCSFSGFSLSTSGMGVSWIRQPSGKGLEWLAHIYWDDDKRYNPSLKSRLTISKDTSSSQVFLKITSVDTVDTATYYCARRGPLITTDGTFDVWGAGTTVTVSS
VL: DIVMTQSRKFMSTSVGDRVSITCKASQDVGTSVAWYQQKPGQSPKLLIYWASTRHTGVPDRFTGSGSGTDFTLTINSVQSEDLADYFCQQYSSYPYTFGGGTKLEMK
notes: also called 3A7 clone
  Kd: ~10 pM

— patent US20230242623A1 (GEORGIA TECH RESEARCH, published 2023)
